{"source": "patent US20080311122", "about": "“Antagonists of Hmgb1 and/or Rage and Methods of Use Thereof” (Medimmune, LLC, published 2008)", "key": {"[1]": {"target": "T1, HMGB1 (native, calf/bovine thymus) (Bos taurus, UniProt P10103 P10103:2-215)", "assay": "random DNA not bound", "conditions": "tags: none; purified from bovine thymus at Medimmune"}, "[2]": {"target": "T1, HMGB1 (native, calf/bovine thymus)", "assay": "apparent Kd; intrinsic tryptophan fluorescence quench, 1.7 uM HMGB1, 1:10 DPBS, 25 C", "conditions": "tags: none; purified from bovine thymus at Medimmune; label: biotin (ELISA)", "protocol": "Tryptophan emission for CpG-A binding to HMGB1: Fluorescence titrations and spectra of HMGB-1 were carried out at 25° C. with a SPEX Fluoromax-3 spectrofluorimeter, monitoring the HMGB-1 intrinsic tryptophan emission at 347 nm (8 nm bandwidth) with 280 nm excitation (3 nm bandwidth) in a masked capped dual-pathlength (0.2×1.0 cm) quartz cell (Hellma Cells, Inc., Jamaica, N.Y.) upon stepwise addition of CpG-A (0.5 mM) to a 1.7 μM solution of HMGB-1 in 1:10 Dulbecco Phosphate Buffered Saline (PBS) solution (Invitrogen, Carlsbad, Calif.). Complex formation between HMGB-1 and the nucleic acid was monitored by the change in the initial fluorescence of the protein. HMGB-1 fractional saturation was inferred from the ratio of observed fluorescence change to maximal change (at saturation), Fₗᵢₘ, for each of the nucleic acid additions. Binding affinity was calculated from graphs of relative fluorescence intensity versus [nucleic acid base]/[protein].The occluded binding site size (n) was derived from the intersection of the extrapolated initial slope with the limiting fluorescence plateau in the equilibrium binding isotherms. The measurements for assessment of Tryptophan emission are reviewed in detail in Lakowicz, 2000, Photochem. Photobiol. 72, 421-437.\nThe binding of immobilized HMGB1 to soluble CpG-A was determined by ELISA (FIG. 33, top left). […]"}, "HMGB1 + RAGE/Fc complex [3]": {"target": "T2, HMGB1 + RAGE/Fc complex (Bos taurus / Mus musculus, UniProt P10103;Q62151 P10103:2-215,Q62151:23-340)", "T2 chain 1": "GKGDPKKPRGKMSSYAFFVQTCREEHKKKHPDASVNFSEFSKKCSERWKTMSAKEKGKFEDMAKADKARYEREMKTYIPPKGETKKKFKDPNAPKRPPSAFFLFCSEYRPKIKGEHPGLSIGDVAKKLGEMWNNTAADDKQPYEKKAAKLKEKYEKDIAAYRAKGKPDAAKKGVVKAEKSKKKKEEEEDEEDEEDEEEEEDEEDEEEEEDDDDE", "T2 chain 2": "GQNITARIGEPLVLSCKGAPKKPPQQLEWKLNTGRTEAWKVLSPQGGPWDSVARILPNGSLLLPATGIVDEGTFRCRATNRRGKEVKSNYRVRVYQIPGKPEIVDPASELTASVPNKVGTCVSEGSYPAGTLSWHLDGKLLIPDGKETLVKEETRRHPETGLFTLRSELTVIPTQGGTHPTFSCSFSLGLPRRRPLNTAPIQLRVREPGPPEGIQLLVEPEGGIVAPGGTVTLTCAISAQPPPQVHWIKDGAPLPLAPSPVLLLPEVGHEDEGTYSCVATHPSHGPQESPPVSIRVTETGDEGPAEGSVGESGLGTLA", "assay": "ELISA; CpG-A associates with immobilized RAGE/Fc only when pre-complexed with HMGB1; CpG-A lowers EC50 of HMGB1-RAGE binding 100-1000 fold", "conditions": "tags: thymus HMGB1; RAGE Fc fusion (R&D Systems); label: biotin (ELISA)", "protocol": "(§1) CpG ELISA: Proteins or peptides were diluted in PBS to the concentration of 5 μg/ml and coated onto plates at 4° C. o/n. Plates were blocked with 4% dry milk in PBS. Biotin labeled CpG-A alone or in complex with HMGB1 were incubated in the plates at 37° C. for 1 hr. and detected with HRP labeled strep-avidin."}, "RAGE/Fc": {"target": "T3, RAGE/Fc (Mus musculus, UniProt Q62151 Q62151:23-340)", "T3 chain": "T2 chain 2", "assay": "ELISA, CpG-A alone on immobilized RAGE/Fc", "conditions": "tags: Fc fusion, R&D Systems; chain copies: 2; label: biotin (ELISA)"}, "HMGB1 B-box peptide": {"target": "HMGB1 B-box peptide (Homo sapiens, UniProt P09429 SEQ:1-69)", "assay": "affinity comparable to full-length HMGB1; data not shown; stated only as CpG DNA", "conditions": "protein: synthetic; tags: synthetic peptide, New England Peptide; label: biotin (ELISA)", "protocol": "as §1"}, "HMGB1 A-box peptide": {"target": "T4, HMGB1 A-box peptide (Homo sapiens, UniProt P09429 SEQ:1-77)", "T4 sequence": "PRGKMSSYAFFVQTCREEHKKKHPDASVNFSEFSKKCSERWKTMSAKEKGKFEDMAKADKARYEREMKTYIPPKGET", "assay": "affinity comparable to full-length HMGB1; data not shown; stated only as CpG DNA", "conditions": "protein: synthetic; tags: synthetic peptide, New England Peptide; label: biotin (ELISA)", "protocol": "as §1"}, "[4]": {"target": "T1, HMGB1 (native, calf/bovine thymus)", "assay": "data not shown; p546 states conversely that HMGB1 binds both A and B class ODN", "conditions": "tags: none; purified from bovine thymus at Medimmune"}, "HMGB1 + RAGE/Fc complex [5]": {"target": "T2, HMGB1 + RAGE/Fc complex", "assay": "HMGB1/CpG-B complex failed to augment binding to RAGE; data not shown", "conditions": "tags: thymus HMGB1; RAGE Fc fusion (R&D Systems)"}, "[6]": {"target": "T1, HMGB1 (native, calf/bovine thymus)", "assay": "non-stimulatory CpG-A control sequence bound; tryptophan fluorescence", "conditions": "tags: none; purified from bovine thymus at Medimmune"}}, "data": [{"binder": "GGTCGTTCCATTTTACTCCAC (ssDNA)", "note": "[random DNA ODN]", "values": [{"measurement": "binding result", "setting": "[1]", "result": "no binding"}]}, {"binder": "GGGGGACGATCGTCGGGGGG (ssDNA)", "note": "[CpG-A (ODN2216)]", "values": [{"measurement": "Kd", "setting": "[2]", "result": 70, "unit": "nM"}, {"measurement": "binding result", "setting": "HMGB1 + RAGE/Fc complex [3]", "result": "binds"}, {"measurement": "binding result", "setting": "RAGE/Fc", "result": "no binding"}, {"measurement": "binding result", "setting": "HMGB1 B-box peptide", "result": "binds"}, {"measurement": "binding result", "setting": "HMGB1 A-box peptide", "result": "binds"}]}, {"binder": "TCGTCGTTTTGTCGTTTTGTCGTT (ssDNA)", "note": "[CpG-B (ODN 2006)]", "values": [{"measurement": "binding result", "setting": "[4]", "result": "no binding"}, {"measurement": "binding result", "setting": "HMGB1 + RAGE/Fc complex [5]", "result": "no binding"}]}, {"binder": "GGGGGAGCATGCTGGGGGGC (ssDNA)", "note": "[control ODN for CpG-A (non-stimulatory)]", "values": [{"measurement": "binding result", "setting": "[6]", "result": "binds"}]}]}
